Laboratory results: patent US20190300590A1 (PROTAGONIST THERAPEUTICS, published 2019)
*1 amine or outer side, *2 acyl side, *3 side chain or, on linkers, in order; H or OH if unused. Bridges are numbered along the chain shown (N, C = ends). Primed or numbered codes have the meaning given here. [ ]: non-standard residue; d: D form. Phe(4-OMe)(3) = O-methyl-L-tyrosine (4-methoxy-L-phenylalanine), COc1ccc(C[C@H](N[*:1])C(=O)[*:2])cc1; Phe(4-OMe)(5) = O-methyl-L-tyrosine (4-methoxy-Phe), COc1ccc(C[C@H](N[*:1])C(=O)[*:2])cc1; Phe(4-OMe)(4) = O-methyl-L-tyrosine, COc1ccc(C[C@H](N[*:1])C(=O)[*:2])cc1; Phe(3,4-(OMe)2) = COc1ccc(C[C@H](N)C(=O)O)cc1OC; Phe(4-CF3) = N[C@@H](Cc1ccc(C(F)(F)F)cc1)C(=O)O; Phe(4-tBu) = CC(C)(C)c1ccc(C[C@H](N)C(=O)O)cc1; Bip = N[C@@H](Cc1ccc(-c2ccccc2)cc1)C(=O)O; 2Nal = N[C@@H](Cc1ccc2ccccc2c1)C(=O)O; Ala(cPent) = N[C@@H](CC1CCCC1)C(=O)O; AEF = NCCOc1ccc(C[C@H](N)C(=O)O)cc1; Gly(octyl) = CCCCCCCC[C@H](N)C(=O)O; Cav = NC(N)=NOCC[C@H](N)C(=O)O; Pen = CC(C)(S)[C@H](N)C(=O)O; hLeu = CC(C)CC[C@H](N)C(=O)O; αMeK = C[C@](N)(CCCCN)C(=O)O; Orn = NCCC[C@H](N)C(=O)O; Abu = CC[C@H](N)C(=O)O; Dap = NC[C@H](N)C(=O)O; AEA = NCCOCC(=O)O

T1: IL23R_huFC (human, UniProt Q5VWK5 24-353)
T1 sequence (looked up): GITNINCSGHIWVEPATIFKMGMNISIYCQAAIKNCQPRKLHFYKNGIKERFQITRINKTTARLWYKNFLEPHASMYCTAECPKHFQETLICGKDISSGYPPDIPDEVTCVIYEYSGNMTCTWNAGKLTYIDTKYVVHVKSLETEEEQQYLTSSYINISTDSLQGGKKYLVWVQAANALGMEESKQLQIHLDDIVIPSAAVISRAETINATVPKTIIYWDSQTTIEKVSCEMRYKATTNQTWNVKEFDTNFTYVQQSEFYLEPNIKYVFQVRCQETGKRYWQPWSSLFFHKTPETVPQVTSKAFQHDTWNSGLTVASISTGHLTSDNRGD

T2: IL23R_huFC (human, UniProt Q5VWK5 24-353)
T2 sequence (looked up): T1 sequence (looked up)

B1: Ac-Cyclo-[[Abu]-QT-[Phe(3,4-OMe)]-QC]-[Phe[4-(2-aminoethoxy)]]-[2-Nal]-[α-MeLys]-ENG-NH2 (peptide)
peptide: Ac-[Abu]QT[Phe(3,4-(OMe)2)]QC[AEF][2Nal][αMeK]ENG-NH2
modifications: thioether 1-6
B2: Ac-Cyclo-[[Abu]-QTYQC]-[Phe(4-OMe)]-[2-Nal]-[α-MeLys]-[Lys(Ac)]-NG-NH2 (peptide)
peptide: Ac-[Abu]QTYQC[Phe(4-OMe)(5)][2Nal][αMeK]K(Ac)NG-NH2
modifications: thioether 1-6
B3: Ac-Cyclo-[[Abu]-QT-[Phe(4-CF3)]-QC]-[Phe[4-(2-aminoethoxy)]]-[2-Nal]-[α-MeLys]-ENG-NH2 (peptide)
peptide: Ac-[Abu]QT[Phe(4-CF3)]QC[AEF][2Nal][αMeK]ENG-NH2
modifications: thioether 1-6
B4: Ac-Cyclo-[[Abu]-QTWQC]-[Octgly]-[2-Nal]-[α-MeLys]-[Lys(Ac)]-NG-NH2 (peptide)
peptide: Ac-[Abu]QTWQC[Gly(octyl)][2Nal][αMeK]K(Ac)NG-NH2
modifications: thioether 1-6
B5: Ac-Cyclo-[[Abu]-QT-[Bip]-QC]-[Phe(4-OMe)]-[2-Nal][α-MeLys]-[Lys(Ac)]-NG-NH2 (peptide)
peptide: Ac-[Abu]QT[Bip]QC[Phe(4-OMe)(4)][2Nal][αMeK]K(Ac)NG-NH2
modifications: thioether 1-6
B6: Ac-Cyclo-[Abu]-QTWQ-(D)Cys]]-YW-[hLeu]-ENG-NH2 (peptide)
peptide: Ac-[Abu]QTWQ[dC]YW[hLeu]ENG-NH2
modifications: thioether 1-6
B7: Ac-Cyclo-[[Abu]-QTWQC]-[Phe(4-OMe)]-[Phe(4-tBu)]-[α-MeLys]-ENG-NH2 (peptide)
peptide: Ac-[Abu]QTWQC[Phe(4-OMe)(3)][Phe(4-tBu)][αMeK]ENG-NH2
modifications: thioether 1-6
B8: Ac-Cyclo-[[Abu]-QTWQC]-[Phe(4-OMe)]-[Octgly]-[α-MeLys]-[Lys(Ac)]-NG-NH2 (peptide)
peptide: Ac-[Abu]QTWQC[Phe(4-OMe)(3)][Gly(octyl)][αMeK]K(Ac)NG-NH2
modifications: thioether 1-6
B9: Ac-Cyclo-[[Abu]-QTWQ-[Pen]]-YW-[hLeu]-ENG-NH2 (peptide)
peptide: Ac-[Abu]QTWQ[Pen]YW[hLeu]ENG-NH2
modifications: thioether 1-6
B10: Ac-Cyclo-[[Abu]-QTWQC]-[Phe[4-(2-aminoethoxy)]]-W-[α-MeLys]-[Lys(Ac)]-[Dap]-G-NH2 (peptide)
peptide: Ac-[Abu]QTWQC[AEF]W[αMeK]K(Ac)[Dap]G-NH2
modifications: thioether 1-6
B11: Ac-CADWVCYWHRHADRVK-NH2 (peptide)
peptide: Ac-CADWVCYWHRHADRVK-NH2
modifications: disulfide 1-6 (inferred)
B12: Ac-CRTWECYWHEQS-NH2 (peptide)
peptide: Ac-CRTWECYWHEQS-NH2
modifications: disulfide 1-6 (inferred)
B13: Ac-CQTWQCYW-[Cpa]-ENG-NH2 (peptide)
peptide: Ac-CQTWQCYW[Ala(cPent)]ENG-NH2
modifications: disulfide 1-6 (inferred)
B14: Ac-CADWVCYWHTFGER-NH2 (peptide)
peptide: Ac-CADWVCYWHTFGER-NH2
modifications: disulfide 1-6 (inferred)
B15: Ac-CADWVCYWHTHGER-NH2 (peptide)
peptide: Ac-CADWVCYWHTHGER-NH2
modifications: disulfide 1-6 (inferred)
B16: Ac-CRTWECYWHEYG-NH2 (peptide)
peptide: Ac-CRTWECYWHEYG-NH2
modifications: disulfide 1-6 (inferred)
B17: Ac-CATWQCYWHEYG-NH2 (peptide)
peptide: Ac-CATWQCYWHEYG-NH2
modifications: disulfide 1-6 (inferred)
B18: Ac-CTTWECYWHQFG-NH2 (peptide)
peptide: Ac-CTTWECYWHQFG-NH2
modifications: disulfide 1-6 (inferred)
B19: Ac-CTTWECYWHEYG-NH2 (peptide)
peptide: Ac-CTTWECYWHEYG-NH2
modifications: disulfide 1-6 (inferred)
B20: Ac-CRTWQCYWHEYG-NH2 (peptide)
peptide: Ac-CRTWQCYWHEYG-NH2
modifications: disulfide 1-6 (inferred)
B21: Ac-CTTWECYWHEFG-NH2 (peptide)
peptide: Ac-CTTWECYWHEFG-NH2
modifications: disulfide 1-6 (inferred)
B22: Ac-CRTWECYWHEFG-NH2 (peptide)
peptide: Ac-CRTWECYWHEFG-NH2
modifications: disulfide 1-6 (inferred)
B23: Ac-CQTWQCYW-[Cav]-ENG-NH2 (peptide)
peptide: Ac-CQTWQCYW[Cav]ENG-NH2
modifications: disulfide 1-6 (inferred)
B24: Ac-CKTWTCYWHEFG-NH2 (peptide)
peptide: Ac-CKTWTCYWHEFG-NH2
modifications: disulfide 1-6 (inferred)
B25: Ac-CADWVCYWHTFGAA[(D)Lys]-OH (peptide)
peptide: Ac-CADWVCYWHTFGAA[dK]-OH
modifications: disulfide 1-6 (inferred)
B26: Ac-DTPRCRTWECYWHTFG-NH2 (peptide)
peptide: Ac-DTPRCRTWECYWHTFG-NH2
modifications: disulfide 5-10 (inferred)
B27: Hy-CRTWQCYWRKFG-NH2 (peptide)
peptide: H-CRTWQCYWRKFG-NH2
modifications: disulfide 1-6 (inferred)
B28: Ac-CADWVCYWHTFGA-[(D)Lys]-OH (peptide)
peptide: Ac-CADWVCYWHTFGA[dK]-OH
modifications: disulfide 1-6 (inferred)
B29: Ac-CEDWKCYWHKYG-NH2 (peptide)
peptide: Ac-CEDWKCYWHKYG-NH2
modifications: disulfide 1-6 (inferred)
B30: Ac-CQTWQCYWR-[Dapa]-NG-[AEA]-[(D)-Lys]-NH2 (peptide)
peptide: CQTWQCYWRXNGXK
modifications: Ac-; [Dapa]; [AEA]; [(D)-Lys]; -NH2; disulfide
B31: Ac-CQTWQCYWR-[Orn]-NG-[AEA]-[(D)-Lys]-NH2 (peptide)
peptide: Ac-CQTWQCYWR[Orn]NG[AEA][dK]-NH2
modifications: disulfide 1-6
SMILES: CC(=O)N[C@H]1CSSC[C@@H](C(=O)N[C@@H](Cc2ccc(O)cc2)C(=O)N[C@@H](Cc2c[nH]c3ccccc23)C(=O)N[C@@H](CCCNC(=N)N)C(=O)N[C@@H](CCCN)C(=O)N[C@@H](CC(N)=O)C(=O)NCC(=O)NCCOCC(=O)N[C@H](CCCCN)C(N)=O)NC(=O)[C@H](CCC(N)=O)NC(=O)[C@H](Cc2c[nH]c3ccccc23)NC(=O)[C@H]([C@@H](C)O)NC(=O)[C@H](CCC(N)=O)NC1=O
B32: Ac-CQTWQCYWRENG-NH2 (peptide)
peptide: Ac-CQTWQCYWRENG-NH2
modifications: disulfide 1-6 (inferred)
B33: Ac-CQTWQCYWLENG-NH2 (peptide)
peptide: Ac-CQTWQCYWLENG-NH2
modifications: disulfide 1-6 (inferred)
B34: Ac-CQTWQCYWR-[K-Ac]-NG-NH2 (peptide)
peptide: Ac-CQTWQCYWRK(Ac)NG-NH2
modifications: disulfide 1-6 (inferred)
B35: Ac-CQTWQCYW[-hLeu]-ENG-NH2 (peptide)
peptide: Ac-CQTWQCYW[hLeu]ENG-NH2
modifications: disulfide 1-6 (inferred)
B36: Ac-CQTWECYWHLYG-NH2 (peptide)
peptide: Ac-CQTWECYWHLYG-NH2
modifications: disulfide 1-6 (inferred)

Target: T1, IL23R_huFC
Experiment: human ELISA vs IL-23

IC50 | Binder
~3000 nM | B1
~10000 nM | B2
~3000 nM | B3
~10000 nM | B4
~10000 nM | B5
> 1000 nM | B6
> 1000 nM | B7
~10000 nM | B8
> 1000 nM | B9
> 1000 nM | B10

Target: T2, IL23R_huFC
Experiment: IL23-IL23R competitive ELISA

IC50 | Binder
< 500 nM | B11
< 500 nM | B12
< 500 nM | B13
< 500 nM | B14
< 500 nM | B15
< 500 nM | B16
< 500 nM | B17
< 500 nM | B18
< 500 nM | B19
< 500 nM | B20
< 500 nM | B21
< 500 nM | B22
< 500 nM | B23
< 500 nM | B24
< 500 nM | B25
< 500 nM | B26
< 500 nM | B27
< 500 nM | B28
< 500 nM | B29
< 500 nM | B30
< 500 nM | B31
< 500 nM | B32
< 500 nM | B33
< 500 nM | B34
< 500 nM | B35
< 500 nM | B36
